Measurements as given in the Immune Epitope Database (IEDB).

Tests used:
[1] = target: HLA-A*26:01; assay: IEDB peptide-MHC binding, purified MHC/direct/fluorescence; filed as Kd, often an IC50 or EC50 that approximates it; ≥ and ≤ were set here for values at or beyond the usual limits of such assays; details: source organism: Giardia lamblia ATCC 50803
[2] = target: HLA-B*39:01; assay: as above; details: source organism: Giardia lamblia ATCC 50803
[3] = target: HLA-B*27:05; assay: as above; details: source organism: Giardia lamblia ATCC 50803
[4] = target: HLA-A*02:01; assay: as above; details: source organism: Giardia lamblia ATCC 50803
[5] = target: HLA-A*11:01; assay: as above; details: source organism: Giardia lamblia ATCC 50803
[6] = target: HLA-B*08:01; assay: as above; details: source organism: Giardia lamblia ATCC 50803
[7] = target: HLA-A*31:01; assay: as above; details: source organism: Giardia lamblia ATCC 50803
[8] = target: HLA-A*69:01; assay: as above; details: source organism: Giardia lamblia ATCC 50803
[9] = target: HLA-B*15:01; assay: as above; details: source organism: Giardia lamblia ATCC 50803
[10] = target: HLA-B*58:01; assay: as above
[11] = target: HLA-A*01:01; assay: as above; details: source organism: Giardia lamblia ATCC 50803
[12] = target: HLA-A*03:01; assay: as above
[13] = target: HLA-B*07:02; assay: as above; details: source organism: Giardia lamblia ATCC 50803
[14] = target: HLA-B*40:01; assay: as above; details: source organism: Giardia lamblia ATCC 50803
[15] = target: HLA-B*44:02; assay: as above; details: source organism: Giardia lamblia ATCC 50803
[16] = target: HLA-B*58:01; assay: IEDB peptide-MHC binding, purified MHC/competitive/radioactivity; filed as Kd, often an IC50 or EC50 that approximates it; ≥ and ≤ were set here for values at or beyond the usual limits of such assays
[17] = target: HLA-A*01:01; assay: as above
[18] = target: HLA-B*57:01; assay: as above
[19] = target: HLA-A*26:01; assay: as above; details: source organism: Dengue virus 1 Singapore/S275/1990
[20] = target: HLA-A*23:01; assay: as above; details: source organism: Dengue virus 1 Singapore/S275/1990
[21] = target: HLA-A*24:02; assay: as above; details: source organism: Dengue virus 1 Singapore/S275/1990
[22] = target: HLA-A*02:12; assay: IEDB peptide-MHC binding, purified MHC/direct/fluorescence; filed as Kd, often an IC50 or EC50 that approximates it; ≥ and ≤ were set here for values at or beyond the usual limits of such assays; details: source organism: Reston ebolavirus
[23] = target: HLA-A*02:16; assay: as above; details: source organism: Reston ebolavirus
[24] = target: HLA-A*02:03; assay: as above; details: source organism: Reston ebolavirus
[25] = target: HLA-A*02:11; assay: as above; details: source organism: Reston ebolavirus
[26] = target: HLA-A*24:03; assay: as above; details: source organism: Tai Forest virus - Cote d'Ivoire, Cote d'Ivoire, 1994
[27] = target: HLA-A*02:19; assay: as above; details: source organism: Reston ebolavirus
[28] = target: HLA-A*68:02; assay: as above; details: source organism: Reston ebolavirus
[29] = target: HLA-A*26:01; assay: IEDB peptide-MHC binding, purified MHC/competitive/fluorescence; filed as Kd, often an IC50 or EC50 that approximates it; ≥ and ≤ were set here for values at or beyond the usual limits of such assays; details: source organism: Reston ebolavirus
[30] = target: HLA-B*51:01; assay: as above; details: source organism: Reston ebolavirus
[31] = target: HLA-B*18:01; assay: as above; details: source organism: Reston ebolavirus
[32] = target: HLA-B*39:01; assay: as above; details: source organism: Reston ebolavirus
[33] = target: HLA-A*02:01; assay: as above; details: source organism: Reston ebolavirus
[34] = target: HLA-B*46:01; assay: as above; details: source organism: Reston ebolavirus
[35] = target: HLA-A*69:01; assay: as above; details: source organism: Reston ebolavirus
[36] = target: HLA-B*15:01; assay: as above; details: source organism: Reston ebolavirus
[37] = target: HLA-B*27:03; assay: as above; details: source organism: Reston ebolavirus
[38] = target: HLA-B*15:17; assay: as above; details: source organism: Reston ebolavirus
[39] = target: HLA-B*57:01; assay: as above; details: source organism: Reston ebolavirus
[40] = target: HLA-B*15:17; assay: IEDB peptide-MHC binding, purified MHC/direct/fluorescence; filed as Kd, often an IC50 or EC50 that approximates it; ≥ and ≤ were set here for values at or beyond the usual limits of such assays; details: source organism: Listeria monocytogenes
[41] = target: HLA-B*57:01; assay: as above; details: source organism: Listeria monocytogenes FSL N3-165
[42] = target: HLA-B*53:01; assay: IEDB peptide-MHC binding, purified MHC/competitive/radioactivity; filed as Kd, often an IC50 or EC50 that approximates it; ≥ and ≤ were set here for values at or beyond the usual limits of such assays; details: source organism: Dengue virus 4 Philippines/H241/1956
[43] = source organism: Giardia lamblia ATCC 50803
[44] = source organism: Dengue virus 1 Brazil/97-11/1997
[45] = source organism: Dengue virus 1 Singapore/S275/1990
[46] = source organism: Dengue virus 4 Philippines/H241/1956

## SHSIPNGLL
[1]
  Kd: ≥ 20 µM
[2]
  Kd: 0.353 µM
[3]
  Kd: ≥ 20 µM
[4]
  Kd: ≥ 20 µM
[5]
  Kd: ≥ 20 µM
[6]
  Kd: ≥ 20 µM
[7]
  Kd: ≥ 20 µM
[8]
  Kd: ≥ 20 µM
[9]
  Kd: ≥ 20 µM
[10]; [43]
  Kd: ≥ 20 µM
[11]
  Kd: ≥ 20 µM
[12]; [43]
  Kd: ≥ 20 µM
[13]
  Kd: ≥ 20 µM
[14]
  Kd: ≥ 20 µM
[15]
  Kd: ≥ 20 µM

## VSSWEEVPYL
[16]; [44]
  Kd: 0.256 µM
[17]; [44]
  Kd: 12.4 µM
[18]; [44]
  Kd: 0.384 µM

## VTARWLWGF
[19]
  Kd: 7.07 µM
[20]
  Kd: 0.134 µM
[16]; [45]
  Kd: 0.038 µM
[17]; [45]
  Kd: 4 µM
[21]
  Kd: 0.152 µM
[18]; [45]
  Kd: 0.0016 µM

## WFQRIPLQW
[22]
  Kd: ≥ 20 µM
[23]
  Kd: ≥ 20 µM
[24]
  Kd: ≥ 20 µM
[25]
  Kd: ≥ 20 µM
[26]
  Kd: 0.0003 µM
[27]
  Kd: ≥ 20 µM
[12]; source organism: Reston ebolavirus
  Kd: ≥ 20 µM
[28]
  Kd: ≥ 20 µM
[29]
  Kd: ≥ 20 µM
[30]
  Kd: ≥ 20 µM
[31]
  Kd: ≥ 20 µM
[32]
  Kd: ≥ 20 µM
[33]
  Kd: ≥ 20 µM
[34]
  Kd: ≥ 20 µM
[35]
  Kd: ≥ 20 µM
[36]
  Kd: ≥ 20 µM
[37]
  Kd: ≥ 20 µM
[38]
  Kd: ≥ 20 µM
[39]
  Kd: ≥ 20 µM

## WTRPRYIEI
[10]; source organism: Listeria monocytogenes FSL N3-165
  Kd: 0.429 µM
[40]
  Kd: 0.27 µM
[41]
  Kd: ≥ 20 µM

## YATQTVGPW
[42]
  Kd: 0.0279 µM
[16]; [46]
  Kd: 0.0168 µM
[18]; [46]
  Kd: 0.605 µM
